From patent US20240218071A1 (ANHUI BIOX VISION BIOLOGICAL TECHNOLOGY, published 2024)
Changes are numbered by the printed parent chain. Read-outs that look alike come from different tables or passages of the source.

B1: C8-8 antibody (antibody, V domains shown)
VH: EVQLLESGGGLVRPGGSLRLSCAASGFTFGSYEMNWVRQAPGKGLEWVSYISSSGETTDYADSVKGRFTVSRDNSKNLLYLQMNSLRAEDTAVYYCARDVFFFDSSGPPGAYGMDVWGQGTMVTVSS
VL: DIQLTQSPSSLTASVGDRVTITCRSSQGIRSSLAWYQQKPGKPPKLLIYGASSLEGGVPSRFSGSGSGTDFTLTISSLQPEDFATYYCQQLNSFPSTFGQGTKLEIK
B2: C8-1 antibody (antibody, V domains shown)
VH: B1 VH with P108D, P109N
VL: B1 VL with N92A
B3: C8-2 antibody (antibody, V domains shown)
VH: B1 VH with D104S, S105P, P108D, P109N
VL: B1 VL
B4: C8-3 antibody (antibody, V domains shown)
VH: B1 VH with F29A, P108D, P109N
VL: B1 VL with G56V
B5: C8-4 antibody (antibody, V domains shown)
VH: B1 VH with P109R
VL: B1 VL
B6: C8-5 antibody (antibody, V domains shown)
VH: B1 VH with N35D, G66P, P108D, P109N
VL: B1 VL with A51G
B7: C8-6 antibody (antibody, V domains shown)
VH: B1 VH with P108S
VL: B1 VL
B8: C8-7 antibody (antibody, V domains shown)
VH: B1 VH with P108D, P109N, G110H
VL: B1 VL
B9: C8-9 antibody (antibody, V domains shown)
VH: B1 VH with G107R, P109N
VL: B1 VL
B10: C8-10 antibody (antibody, V domains shown)
VH: B1 VH with P108F
VL: B1 VL
B11: C8-11 antibody (antibody, V domains shown)
VH: B1 VH with F29P, S54A, P108D, P109N
VL: B1 VL with E55L
B12: C8 clone anti-CD40 full-length antibody (antibody, human IgG1, kappa, V domains shown)
VH: B1 VH with P108D, P109N
VL: DIQLTQSPSSLTASVGDRVTITCRSSQGIRSSLAWYQQKPGKPPKLLIYGASSLEGGVPSRFSGSGSGTDFTLTISSLQPEDFATYYCQQLNSFPSTFGQGTKLEIKR
notes: also called C8-WT; C8 parent antibody
B13: Dacetuzumab (antibody, V domains shown)
VH: EVQLVESGGGLVQPGGSLRLSCAASGYSFTGYYIHWVRQAPGKGLEWVARVIPNAGGTSYNQKFKGRFTLSVDNSKNTAYLQMNSLRAEDTAVYYCAREGIYWWGQGTLVTVSS
VL: DIQMTQSPSSLSASVGDRVTITCRSSQSLVHSNGNTFLHWYQQKPGKAPKLLIYTVSNRFSGVPSRFSGSGSGTDFTLTISSLQPEDFATYFCSQTTHVPWTFGQGTKVEIKR
B14: APX005M (antibody, V domains shown)
VH: QVQLVESGGGVVQPGRSLRLSCAASGFSFSSTYVCWVRQAPGKGLEWIACIYTGDGTNYSASWAKGRFTISKDSSKNTVYLQMNSLRAEDTAVYFCARPDITYGFAINFWGPGTLVTVSS
VL: DIQMTQSPSSLSASVGDRVTIKCQASQSISSRLAWYQQKPGKPPKLLIYRASTLASGVPSRFSGSGSGTDFTLTISSLQPEDVATYYCQCTGYGISWPIGGGTKVEIK

Key:
[1] = target: T1, P17-His protein (human CD40 antigen) (human, UniProt P25942 21-193, limits assumed); experiment: BLI (Fortebio Octet RED96), antibody on Protein A sensor, P17-His 5-40 nM
T1 construct: also called human CD40 antigen (P17-His)
Procedure: In this example, the affinity of C8 parent antibody (C8-WT) and affinity variant antibody for human CD40 antigen (P17-His) was detected using an Fortebio Octet RED96 instrument.
Material preparation: 1 g of BSA and 500 μL of Tween 20 were added to 1000 mL of 1×PBS and mixed uniformly. The mixture was filtered, and then subpackaged and stored. 0.1 mL of glycine solution (0.1 M, pH 2.0) was pipetted, 0.9 mL of ultrapure water was added, and the mixture was mixed uniformly. The antibodies were diluted to 10 μg/mL with a KB buffer, and the antigens were diluted with a KB buffer to serial concentration gradients, i.e., 40 nM, 20 nM, 10 nM, 5 nM and 0 nM.
Experiment procedure: The sample plate (GreinierBio, PN655209) was tested after a sensor (Protein A sensor) was pre-wetted in the dark for at least 10 min, and after confirming the accuracy, the test was performed according to the preset programs. KB buffer was added at 200 μL/well to the wells of columns 1, 10 and 12 of sample plate 1; the glycine solution (0.01 M, pH 2.0) was added to the wells of column 11; the prepared sample solution was added to the wells of columns 2-8 (5 replicate wells for one sample); and P17-His was sequentially added to the wells of column 9 in a descending order of the concentration.

[2] = target: T2, full-length mouse CD40 expressed on CHO-K cells (mouse, UniProt P27512 20-289); experiment: flow cytometry on CHO-K-mouseCD40 cells, FITC anti-human IgG Fc secondary antibody
T2 construct: whole, on cells; also called CHO-K-mouseCD40 cells; mouse CD40 antigen
Procedure: The cross-reactivity of the affinity variant candidate antibody prepared in example 4.3 to mouse CD40 was tested using artificially constructed CHO-K cells expressing full-length mouse CD40 (Uniprot #P27512) (CHO-K-mouseCD40 cells). The CHO-K cells expressing mouse CD40 were seeded into a 96-well plate at 1.0×10⁵ cells/well. 100 μL of diluted affinity variant candidate antibody and the control antibody (APX005) were added to the 96-well plate, respectively. […] The cells were then washed and tested by flow cytometry.

[3] = target: T3, human CD40 expressed on the cell surface (human, UniProt P25942 21-277); experiment: flow cytometry on CHO-K-huCD40 cells, APC anti-human IgG secondary antibody
T3 construct: whole, on cells; Used for transfected CHO-K cells, for transfected Jurkat reporter cells (Met1-Gln277) and for the natural CD40 on Ramos cells and iDC; also called CHO-K-huCD40 cells; CHO cells expressing CD40
Procedure: (§1) 100 μL of diluted anti-CD40 candidate antibody prepared in example 4.3 was added to the 96-well plate. After incubation at 4° C. for 30 min, the cells were washed 5 times with a FACS buffer (PBS+5% FBS+2% BSA), added with 100 μL of APC-labeled anti-human IgG secondary antibody, and then incubated at 4° C. for 30 min. The cells were then washed and tested by flow cytometry.

[4] = target: T3, human CD40 expressed on the cell surface; experiment: as above; remark: listed apart in the source
Procedure: as §1

[5] = target: T3, human CD40 expressed on the cell surface; experiment: cell-based or functional assay
[6] = target: T3, human CD40 expressed on the cell surface; experiment: flow cytometry on CHO-K-huCD40 cells, APC anti-human IgG Fc secondary antibody
Procedure: (§2) To confirm the binding activity and cross-reactivity of the full-length anti-CD40 antibody prepared in example 1.4 of the present invention to CD40, CHO-K-huCD40 cells or CHO-K-cynoCD40 cells were seeded into a 96-well plate at 1.0×10⁵ cells/well. 100 μL of diluted anti-CD40 candidate antibody prepared in example 1.4 was added to the 96-well plate. […] Then, the cells were washed, and the binding of the full-length anti-CD40 antibody to CD40 molecules expressed on the cell was detected by flow cytometry.

[7] = target: T4, cynomolgus monkey CD40 expressed on the cell surface (cynomolgus monkey, UniProt G7PG38 21-278); experiment: flow cytometry on CHO-K-cynoCD40 cells, APC anti-human IgG Fc secondary antibody
T4 construct: also called CHO-K-cynoCD40 cells
Procedure: as §2

[8] = target: T2, full-length mouse CD40 expressed on …; experiment: flow cytometry on CHO-K-mouseCD40 cells, FITC anti-human IgG Fc secondary antibody; remark: listed apart in the source
Procedure: Similarly to example 1.3, CHO-K cells expressing full-length mouse CD40 (Uniprot: P27512) (hereinafter also referred to as “CHO-K-mouseCD40 cells”) were prepared. The cross-reactivity of the candidate C8 full-length anti-CD40 antibody prepared in example 1.4 to mouse CD40 was tested using the CHO-K-mouseCD40 cells. The CHO-K-mouseCD40 cells were seeded into a 96-well plate at 1.0×10⁵ cells/well. 100 μL of diluted anti-CD40 candidate antibody and two control antibodies (Dacetuzumab and APX005) were added to the 96-well plate, respectively. […] The cells were then washed and tested by flow cytometry.

T1 sequence (P25942 other isoform, or with tags, fused parts or gaps limits assumed): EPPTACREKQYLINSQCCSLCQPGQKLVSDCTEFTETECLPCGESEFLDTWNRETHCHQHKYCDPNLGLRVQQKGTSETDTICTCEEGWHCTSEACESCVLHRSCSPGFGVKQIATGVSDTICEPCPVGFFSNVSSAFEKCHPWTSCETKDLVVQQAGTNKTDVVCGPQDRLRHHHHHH
T2 sequence (P27512 20-289): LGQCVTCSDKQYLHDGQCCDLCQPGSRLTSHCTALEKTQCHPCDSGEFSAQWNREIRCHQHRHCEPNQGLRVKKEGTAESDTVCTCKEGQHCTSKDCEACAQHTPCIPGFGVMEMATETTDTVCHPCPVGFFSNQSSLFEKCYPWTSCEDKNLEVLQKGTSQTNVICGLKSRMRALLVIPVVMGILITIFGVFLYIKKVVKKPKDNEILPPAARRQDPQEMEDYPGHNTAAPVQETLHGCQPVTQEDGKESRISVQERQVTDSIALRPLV
T3 sequence (P25942 21-277): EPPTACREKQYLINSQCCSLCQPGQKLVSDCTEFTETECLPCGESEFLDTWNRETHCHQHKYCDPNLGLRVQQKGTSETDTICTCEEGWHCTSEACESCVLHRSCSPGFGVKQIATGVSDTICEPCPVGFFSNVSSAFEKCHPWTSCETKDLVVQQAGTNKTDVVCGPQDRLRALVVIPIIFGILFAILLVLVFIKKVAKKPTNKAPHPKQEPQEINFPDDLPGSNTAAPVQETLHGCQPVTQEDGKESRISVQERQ
T4 sequence (G7PG38 entry or part of it limits assumed): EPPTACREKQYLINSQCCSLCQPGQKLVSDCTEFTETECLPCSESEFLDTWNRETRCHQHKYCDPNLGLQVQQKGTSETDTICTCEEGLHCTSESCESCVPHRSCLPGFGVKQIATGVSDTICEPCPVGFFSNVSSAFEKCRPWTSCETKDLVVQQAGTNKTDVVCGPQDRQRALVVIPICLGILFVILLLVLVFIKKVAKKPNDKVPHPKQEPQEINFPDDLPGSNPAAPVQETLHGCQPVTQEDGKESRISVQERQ

Row | Binder | Kd [1] [nM] | koff [1] [s⁻¹] | kon [1] [M⁻¹ s⁻¹] | binding result [2] | EC50 (read off the curve) [3] [µg/mL] | EC50 (read off the curve) [4] [µg/mL] | CD95 expression on Ramos cells without crosslinking agent (FACS) [5] [times weaker than APX005] | EC50 (read off the curve) [6] [µg/mL] | binding result [7] | binding result [8]
1 | B1 | 10.3 | 0.011 | 1.07e+06 | binds | ~0.7 |  |  |  |  | 
2 | B2 | 12.7 | 0.0148 | 1.16e+06 | binds |  | ~0.8 |  |  |  | 
3 | B3 | 11.9 | 0.0111 | 932000 | binds |  | ~0.8 | ~10 |  |  | 
4 | B4 | 4.51 | 0.0111 | 2.46e+06 | no binding (tested: 20 µg/mL) |  | ~0.8 |  |  |  | 
5 | B5 | 5.34 | 0.00725 | 1.36e+06 | no binding (tested: 20 µg/mL) |  | ~0.8 |  |  |  | 
6 | B6 | 8.23 | 0.00818 | 994000 | no binding (tested: 20 µg/mL) |  | ~0.8 |  |  |  | 
7 | B7 | 9.04 | 0.00984 | 1.09e+06 | binds |  | ~0.8 | ~10 |  |  | 
8 | B8 | 12.4 | 0.0111 | 895000 | binds | ~0.9 |  |  |  |  | 
9 | B9 | 9.27 | 0.0112 | 1.21e+06 | binds | ~0.9 |  | ~10 |  |  | 
10 | B10 | 6.82 | 0.00847 | 1.24e+06 | binds | ~0.9 |  | ~10 |  |  | 
11 | B11 | 9.24 | 0.0148 | 1.6e+06 | binds | ~2 |  | ~10 |  |  | 
12 | B12 | 19.3 | 0.0164 | 853000 |  | ~0.9 | ~0.8 |  | ~0.8 | binds | binds
13 | B13 |  |  |  |  |  |  |  | ~0.8 |  | 
14 | B14 | 6.3 | 0.0124 | 1.98e+06 |  | ~0.8 | ~0.7 |  |  |  | 
